Data reported in paper PMC4381287, “Structural characterization of the late competence protein ComFB from Bacillus subtilis” (Bioscience Reports, 2014).

Target: the molecule itself
Assay: SEC; Superdex75 10/300 column, calibrated with standards of known molecular weight; wild type and variants at similar concentrations

B1: late competence protein ComFB from Bacillus subtilis, N-terminally 6xHis-tagged, wild type (natural protein, B. subtilis)
chain: MLVNSKEIVMKELLDRYMDQLHMACTCQVCQNDVLALSLNKVSPSYVTDFKKIAYTKAELVDKQKNTAMLVILAESAAVVSESPSDLCQTKQEEAFIN
notes: ComFB, second protein of the comF operon of Bacillus subtilis, amplified from chromosomal DNA of strain PY79; the purified tagged monomer is 13.5 kDa; the crystal model holds residues 1-91 (chain A); By LC-ESI MS the first methionine is removed; Each subunit holds one Zn2+ ion (C25, C27, C30, C88); The histidine tag was uncleaved in the crystals; also called His6-ComFB; native ComFB; source: E. …
- stoichiometry N: 2
